In patent US12006519B2, “Polymerase mutants and use with 3′-OH unblocked reversible terminators” (Agilent Technologies, Inc., priority 2021, dated 2024):
Changes are numbered by the printed parent chain. Names and notes keep the numbering of the source. “Also recorded” adds a separate entry of the source.

Key:
Assay type in all cases: biochemical
LTA-2 = assay: Template-independent incorporation of LTA-2, LTU-2, LTG-2, LTC-2 to priming strands
Experimental: The template-independent DNA synthesis reactions employed 7.5 U TdT (Promega) or 180 nM (3×over primer) Pfu26 (D141A/E143A/A486L/Y546H/K477W/L409Y) or Pfu48 (D141A/E143A/A486R/Y546H/K477W/L409Y). Varying concentrations of dATP were added to 2 μM (TdT) or 60 nM (Pfu) T7 FOR primer (6′Fam […]) (SEQ ID NO:6) in duplicate reactions containing 1×TdT buffer with CoCl2(Promega) or 1×ThermoPol buffer (NEB). Reactions were incubated for 30 min. at 37° C. (TdT) or 60° C. (Pfu), and then inactivated with heat (TdT; 10 min. at 70° C.) or EDTA (1 ul 500 uM EDTA). Reaction products were exposed to UV using a Stratalinker (15-watt bulbs, […], 10 min). Reactions were diluted in water (TdT, 1:333; Pfu, 1:10) and 1 μl (TdT) or 0.5 μl (Pfu) aliquots were brought up to 10 μl with HiDI/LIZ 120 Size Standard. Products were heated at 95° C. for 5 min., cooled on ice for 2 min., and then analyzed on an ABI 3500 capillary electrophoresis system ([…] capillary, filter set #5, assay=GE5 LIZ120).
In this example, primer extension was carried out with LTA-2 (FIG. 1F) as a Rp+Sp racemic mixture of α-thiotriphosphate, using the conditions described in Example 7.
In further experiments, single-base extension reactions (10 ul) were performed with an equimolar mixture (3 uM each) of two single-stranded oligommcleotides:
Both were labeled with Fam but distinguishable by their lengths using capillary electrophoresis. Primer extension reactions were performed using the following three Pfu mutants at a concentration of 18 nM polymerase: • Pfu10: Pfu polymerase with D141A/E143A/A486L/Y546H/K477W mutations (SEQ ID NO:2) • Pfu26: Pfu polymerase with D141A/E143A/A486L/Y546H/K477W/L409Y mutations (SEQ ID NO:4) • Pfu48: Pfu polymerase with D141A/E143A/A486R/Y546H/K477W/L409Y mutations (SEQ ID NO:5) The extension reactions also employed individual αS-modified LTs in Rp+Sp racemic mixture (namely, LTA-2, LTU-2, LTG-2, and LTC-2) at final concentrations of 5 uM. LTU-2, LTG-2, and LTC-2 are all C7 or C5-hydroxymethyl-a-tert-butyl-2-nitrobenzyl modified reversible terminators like LTA-2, with uracil, guanine, and cytosine in place of adenine. […] Reactions were incubated, stopped, UV-treated, and analyzed as described in Example 7.
(§1) Primer extensions were carried out in duplicate 25 ul reactions containing 7.5 U calf thymus TdT, 1×Promega TdT buffer (with CoCl2), varying concentrations of LTA-1 (100 uM, 50 uM, 10 uM, 5 uM, or 1 uM), and either 2 uM (FIG. 11A to 11C) or 80 nM (FIG. 11D to 11F) of a priming strand (Fam-labeled T7 F primer (6Fam […]), SEQ ID NO:8). Controls were performed without the addition of a polymerase. Primer extensions were also carried out in reactions containing the Pfu26 mutant polymerase, 60 nM of the priming strand, and various concentrations (10 μM or 5 μM or 1 μM) of LTA-1 or LTA-2.

LTA-1 = assay: Template-independent incorporation of LTA-1 to a priming strand
Experimental: This example tested the addition of a 3′-OH unblocked reversible terminator (LTA-1, shown in FIG. 1E, or LTA-2, shown in FIG. 1F) to the 3′ end of a single-stranded priming strand. The extension reaction was performed with 2 uM or 80 nM of a priming strand and varying concentrations (100/50/10/5/1 μM) of the reversible terminator. The performance of the Pfu26 polymerase was compared to TdT polymerase.
as §1
Reactions were incubated at 37° C. for 30 min., and then heat-killed for 10 min. at 70° C. Reaction products were split in half, and one-half was treated with UV as described in Example 7. Reactions were then diluted 1:333 (2 uM primer) or 1:13 (80 nM primer) in water, and 0.5 ul portions were analyzed by capillary electrophoresis using the conditions provided in Example 7.

Lightning Terminators [1] = assay: Plate-based assay, incorporation of Lightning Terminators by control extracts; conditions: control extracts, FIG. 6, FIGS. 7A-7B
Experimental: In this example, additional mutant polymerases were derived from Pfu polymerase. To generate the mutants, eighty-seven codons in the Pfu pol B gene were saturated using the QuikChange Lightning Mutagenesis kit and oligonucleotides containing “NDT” codons to create R, N, D, C, G, H, I, L, F, S, Y, and V substitutions with equal frequency. In some cases, mutants missing from NDT libraries were prepared in a separate QuikChange reaction with an equimolar mixture of mutagenic oligos encoding the remaining mutations (A, T, K, Q, E, P, […], W). Thirty-two clones were randomly selected from each QuikChange library (with the exception of T267, Y403, Y410, I475, G499 and K675 libraries which generated fewer transformants). Bacterial lysates were prepared and screened for incorporation of LTA and LTC using a plate-based assay with immobilized primer-templates. A limited number of mutants were also screened for utilization of LTG and LTU (similar trends; data not shown). After washing and UV cleavage (to minimize dye quenching effects), plates were read and fluorescent signals compared to Pfu controls. The following table identifies four mutant Pfu polymerases that served as controls, which were given the arbitrary names Pfu5, Pfu1, and Pfu2, along with Pfu10 (which is discussed above).
Selected lysates, based on screening results, were submitted for sequencing, and an amino acid identification was made based on the selections. […] As shown in Example 3, K477W benefits sequencing by increasing the fraction of full-length reads.

Lightning Terminators [2] = assay: Sequencing-by-synthesis with Lightning Terminators (87 cycles); set-up: ARL (87 cycles) / Lead + Lag / Leading / Lagging: unit not given here; conditions: alternative polymerases (D141A/E143A), same protein concentrations (0.02 ug/uL in cycle 1 and 0.002 ug/uL in cycles 2-n)
Experimental: This section generally describes how the present mutant polymerases were used for sequencing-by-synthesis, and how their performance in sequencing was measured. Sequencing was performed on a breadboard instrument, essentially as described in Hertzog D, et al., “A high-performance, low-cost approach to next-generation sequencing”, BioOptics World. 2011 Issue November/December 2011.
In this example, mutations were introduced into the DNA polymerase of SEQ ID NO: 12 (Therminator) in an attempt to improve its capability in sequencing with 3′-OH unblocked terminators. Such mutations to Thermococcus sp. 9° N DNA polymerase are disclosed in U.S. Pat. Nos. 9,273,352; 9,677,059; 9,765,309; U.S. Pat. App. Publication No. 20160032377. The following table summarizes sequencing metrics with Lightning Terminators.
As used in this example and those that follow, “Lead+Lag” refers to dephasing errors in Sequencing by Synthesis technology caused by either reading the next base signal (Lead) or reading the previous base signal (Lag) relative to current base signals. Such errors may arise because of imperfect incoporation of reversible terminators by the polymerase.
In this example, mutant polymerases were created by introducing certain mutations (D141A/E143A/A485L) which are present in Therminator. The three mutations were introduced at the equivalent positions in JDF3 (Thermococcus sp. JDF3) and Pfu (Pyrococcus furisosus) DNA polymerases. The new mutant polymerases were then evaluated for their performance in sequencing with Lightning Terminators, as described above.

B1: TdT: commercially available preparation of calf thymus terminal deoxynucleotidyl transferase (Promega) (protein, UniProt P06526 1-509, looked up)
DNA nucleotidylexotransferase: MDPLCTASSGPRKKRPRQVGASMASPPHDIKFQNLVLFILEKKMGTTRRNFLMELARRKGFRVENELSDSVTHIVAENNSGSEVLEWLQVQNIRASSQLELLDVSWLIESMGAGKPVEITGKHQLVVRTDYSATPNPGFQKTPPLAVKKISQYACQRKTTLNNYNHIFTDAFEILAENSEFKENEVSYVTFMRAASVLKSLPFTIISMKDTEGIPCLGDKVKCIIEEIIEDGESSEVKAVLNDERYQSFKLFTSVFGVGLKTSEKWFRMGFRSLSKIMSDKTLKFTKMQKAGFLYYEDLVSCVTRAEAEAVGVLVKEAVWAFLPDAFVTMTGGFRRGKKIGHDVDFLITSPGSAEDEEQLLPKVINLWEKKGLLLYYDLVESTFEKFKLPSRQVDTLDHFQKCFLILKLHHQRVDSSKSNQQEGKTWKAIRVDLVMCPYENRAFALLGWTGSRQFERDIRRYATHERKMMLDNHALYDKTKRVFLKAESEEEIFAHLGLDYIEPWERNA
Template-independent incorporation of LTA-2 (in words) (LTA-2; single-stranded priming strand): did not incorporate the LTA-2 terminator as efficiently as dATP; also recorded: failed to incorporate LTA-2 | Template-independent incorporation of LTA-1 (in words) (LTA-1): incorporates LTA-1 much more efficiently than the more highly substituted LTA-2 | Termination efficiency with LTA-1 (LTA-1): poor | Bases incorporated in a single synthesis cycle (LTA-1; LTA-1, 80 nM primer): > 3 bases | Bases incorporated in a single synthesis cycle (LTA-1; LTA-1, 2 uM primer): 3 bases

B2: Pfu1: Pfu DNA polymerase with D141A/E143A/A486L (protein, UniProt P61875 1-775, looked up, variant D141A E143A A486L)
DNA polymerase: MILDVDYITEEGKPVIRLFKKENGKFKIEHDRTFRPYIYALLRDDSKIEEVKKITGERHGKIVRIVDVEKVEKKFLGKPITVWKLYLEHPQDVPTIREKVREHPAVVDIFEYDIPFAKRYLIDKGLIPMEGEEELKILAFAIATLYHEGEEFGKGPIIMISYADENEAKVITWKNIDLPYVEVVSSEREMIKRFLRIIREKDPDIIVTYNGDSFDFPYLAKRAEKLGIKLTIGRDGSEPKMQRIGDMTAVEVKGRIHFDLYHVITRTINLPTYTLEAVYEAIFGKPKEKVYADEIAKAWESGENLERVAKYSMEDAKATYELGKEFLPMEIQLSRLVGQPLWDVSRSSTGNLVEWFLLRKAYERNEVAPNKPSEEEYQRRLRESYTGGFVKEPEKGLWENIVYLDFRALYPSIIITHNVSPDTLNLEGCKNYDIAPQVGHKFCKDIPGFIPSLLGHLLEERQKIKTKMKETQDPIEKILLDYRQKLIKLLANSFYGYYGYAKARWYCKECAESVTAWGRKYIELVWKELEEKFGFKVLYIDTDGLYATIPGGESEEIKKKALEFVKYINSKLPGLLELEYEGFYKRGFFVTKKRYAVIDEEGKVITRGLEIVRRDWSEIAKETQARVLETILKHGDVEEAVRIVKEVIQKLANYEIPPEKLAIYEQITRPLHEYKAIGPHVAVAKKLAAKGVKIKPGMVIGYIVLRGDGPISNRAILAEEYDPKKHKYDAEYYIENQVLPAVLRILEGFGYRKEDLRYQKTRQVGLTSWLNIKKS
Utilization of Lightning Terminators (in words) (Lightning Terminators [1]): could utilize Lightning Terminators | % reads >85 (Lightning Terminators [2]): 9.9% | ARL (87 cycles) (Lightning Terminators [2]): 54.9 | Lead + Lag (Lightning Terminators [2]): 2.1

B3: Pfu48: Pfu D141A/E143A/A486R/Y546H/K477W/L409Y, SEQ ID NO:5 (protein)
chain: B2 DNA polymerase with L409Y, K477W, L486R, Y546H
modifications: Mutant of Pyrococcus furiosus Polymerase
Template-independent incorporation of LTA-2, LTU-2, LTG-2 and LTC-2 (in words) (LTA-2; 18 nM polymerase, 5 uM terminators, CE2 and T7 oligonucleotides): superior to Calf thymus Terminal Transferase (TdT)
